Where two headings read alike, the source gives them in different places.
What was measured:
[1] = target: T1, recombinant human IL-18 (human, UniProt Q14116); assay: cell-based or functional assay
[2] = target: T1, recombinant human IL-18
Target sequence in this assay (Q14116 37-193 limits assumed): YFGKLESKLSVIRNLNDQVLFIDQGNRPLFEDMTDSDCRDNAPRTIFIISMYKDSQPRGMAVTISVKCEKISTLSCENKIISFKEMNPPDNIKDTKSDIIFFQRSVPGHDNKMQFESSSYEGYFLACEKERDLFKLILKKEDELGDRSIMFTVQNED

| Binder | IC50 of inhibition of IL-18-induced IFN-γ production in KG-1 cells [1] | IC50 of inhibition of IL-18-induced IFN-γ production in KG-1 cells [2] |
| --- | --- | --- |
| recombinant human IL-18-binding protein with His-tag (hIL18BP-his8) (other) TPVSQTTTAATASVRSTKDPCPSQPPVFPAAKQCPALEVTWPEVEVPLNGTLSLSCVACSRFPNFSILYWLGNGSFIEHLPGRLWEGSTSRERGSTGTQLCKALVLEQLTPALHSTNFSCVLVDPEQVVQRHVVLAQLWAGLRATLPPTQEALPSSHSSPQQQGHHHHHHHH | 0.024 nM | – |
| APB-R3 protein (protein) heavy: QVQLVQSGGGPVKPGGSLRLSCAASGFMFRAYSMNWVRQAPGKGLEWVSSISSSGRYIHYADSVKGRFTISRDNAKNSLYLQMNSLRAEDTAVYYCARETVMAGKALDYWGQGTLVTVSSASTKGPSVFPLAPSSKSTSEGTAALGCLVKDYFPEPVTVSWNSGALTSGVHTFPAVLQSSGLYSLSSVVTVPSSSLGTQTYICNVNHKPSNTKVDKKVEPKSSGSAPAPGSTPVSQTTTAATASVRSTKDPCPSQPPVFPAAKQCPALEVTWPEVEVPLNGTLSLSCVACSRFPNFSILYWLGNGSFIEHLPGRLWEGSTSRERGSTGTQLCKALVLEQLTPALHSTNFSCVLVDPEQVVQRHVVLAQLWAGLRATLPPTQEALPSSHSSPQQQG light: DIVLTQSPGTLSLSPGETATLSCRASQSVGSNLAWYQQKPGQAPRLLIYGASTGATGVPARFSGSRSGTDFTLTITSLQPEDFATYYCQQYYSFLAKTFGQGTQLEIKRTVAAPSVFIFPPSDEQLKSGTASVVCLLNNFYPREAKVQWKVDNALQSGNSQESVTEQDSKDSTYSLSNTLTLSKADYEKHKVYACEVTHQGLSSPVTKSFNRGES | – | 0.0419 nM |

Source: patent US20250122254A1, “Recombinant Fusion Proteins Comprising Interleukin- 18-Binding Protein and Antigen Binding Fragment to Serum Albumin, and Compositions and Uses Thereof” (published 2025)
